# How the values were obtained:
# [1] = tested on: GFP-14-3-3β and its binding proteins; assay: GFP-14-3-3β co-IP with LC-MS/MS label-free quantification, untreated versus PP1c-treated; parameters: species or system human; conditions: GFP-14-3-3β co-IP LC-MS/MS; PP1 vs untreated; student's t-test; label-free quantification, 3 replicates each
# GFP-14-3-3β = GFP-14-3-3β co-IP with LC-MS/MS, untreated GFP-14-3-3β versus GFP control (14-3-3 interactome); type: binding, human; conditions: GFP-14-3-3β co-IP LC-MS/MS; untreated vs GFP; student's t-test; label-free quantification, 3 replicates each
Molecule,"Difference (log2), PP1 vs untreated [1] [log2]","Difference (log2), untreated vs GFP (GFP-14-3-3β) [log2]"
"IPO7 (protein, UniProt O95373 1-1038, looked up) Importin-7: MDPNTIIEALRGTMDPALREAAERQLNEAHKSLNFVSTLLQITMSEQLDLPVRQAGVIYLKNMITQYWPDRETAPGDISPYTIPEEDRHCIRENIVEAIIHSPELIRVQLTTCIHHIIKHDYPSRWTAIVDKIGFYLQSDNSACWLGILLCLYQLVKNYEYKKPEERSPLVAAMQHFLPVLKDRFIQLLSDQSDQSVLIQKQIFKIFYALVQYTLPLELINQQNLTEWIEILKTVVNRDVPNETLQVEEDDRPELPWWKCKKWALHILARLFERYGSPGNVSKEYNEFAEVFLKAFAVGVQQVLLKVLYQYKEKQYMAPRVLQQTLNYINQGVSHALTWKNLKPHIQGIIQDVIFPLMCYTDADEELWQEDPYEYIRMKFDVFEDFISPTTAAQTLLFTACSKRKEVLQKTMGFCYQILTEPNADPRKKDGALHMIGSLAEILLKKKIYKDQMEYMLQNHVFPLFSSELGYMRARACWVLHYFCEVKFKSDQNLQTALELTRRCLIDDREMPVKVEAAIALQVLISNQEKAKEYITPFIRPVMQALLHIIRETENDDLTNVIQKMICEYSEEVTPIAVEMTQHLAMTFNQVIQTGPDEEGSDDKAVTAMGILNTIDTLLSVVEDHKEITQQLEGICLQVIGTVLQQHVLEFYEEIFSLAHSLTCQQVSPQMWQLLPLVFEVFQQDGFDYFTDMMPLLHNYVTVDTDTLLSDTKYLEMIYSMCKKVLTGVAGEDAECHAAKLLEVIILQCKGRGIDQCIPLFVEAALERLTREVKTSELRTMCLQVAIAALYYNPHLLLNTLENLRFPNNVEPVTNHFITQWLNDVDCFLGLHDRKMCVLGLCALIDMEQIPQVLNQVSGQILPAFILLFNGLKRAYACHAEHENDSDDDDEAEDDDETEELGSDEDDIDEDGQEYLEILAKQAGEDGDDEDWEEDDAEETALEGYSTIIDDEDNPVDEYQIFKAIFQTIQNRNPVWYQALTHGLNEEQRKQLQDIATLADQRRAAHESKMIEKHGGYKFSAPVVPSSFNFGGPAPGMN",-0.3489,0.3162
"PHGDH (protein, UniProt O43175 2-533, looked up) D-3-phosphoglycerate …: AFANLRKVLISDSLDPCCRKILQDGGLQVVEKQNLSKEELIAELQDCEGLIVRSATKVTADVINAAEKLQVVGRAGTGVDNVDLEAATRKGILVMNTPNGNSLSAAELTCGMIMCLARQIPQATASMKDGKWERKKFMGTELNGKTLGILGLGRIGREVATRMQSFGMKTIGYDPIISPEVSASFGVQQLPLEEIWPLCDFITVHTPLLPSTTGLLNDNTFAQCKKGVRVVNCARGGIVDEGALLRALQSGQCAGAALDVFTEEPPRDRALVDHENVISCPHLGASTKEAQSRCGEEIAVQFVDMVKGKSLTGVVNAQALTSAFSPHTKPWIGLAEALGTLMRAWAGSPKGTIQVITQGTSLKNAGNCLSPAVIVGLLKEASKQADVNLVNAKLLVKEAGLNVTTSHSPAAPGEQGFGECLLAVALAGAPYQAVGLVQGTTPVLQGLNGAVFRPEVPLRRDLPLLLFRTQTSDPAMLPTMIGLLAEAGVRLLSYQTSLVSDGETWHVMGISSLLPSLEAWKQHVTEAFQFHF",-0.3751,-0.2834
"IARS (protein, UniProt P41252 1-1262, looked up) Isoleucine--tRNA ligase, …: MLQQVPENINFPAEEEKILEFWTEFNCFQECLKQSKHKPKFTFYDGPPFATGLPHYGHILAGTIKDIVTRYAHQSGFHVDRRFGWDCHGLPVEYEIDKTLGIRGPEDVAKMGITEYNNQCRAIVMRYSAEWKSTVSRLGRWIDFDNDYKTLYPQFMESVWWVFKQLYDKGLVYRGVKVMPFSTACNTPLSNFESHQNYKDVQDPSVFVTFPLEEDETVSLVAWTTTPWTLPSNLAVCVNPEMQYVKIKDVARGRLLILMEARLSALYKLESDYEILERFPGAYLKGKKYRPLFDYFLKCKENGAFTVLVDNYVKEEEGTGVVHQAPYFGAEDYRVCMDFNIIRKDSLPVCPVDASGCFTTEVTDFAGQYVKDADKSIIRTLKEQGRLLVATTFTHSYPFCWRSDTPLIYKAVPSWFVRVENMVDQLLRNNDLCYWVPELVREKRFGNWLKDARDWTISRNRYWGTPIPLWVSDDFEEVVCIGSVAELEELSGAKISDLHRESVDHLTIPSRCGKGSLHRISEVFDCWFESGSMPYAQVHYPFENKREFEDAFPADFIAEGIDQTRGWFYTLLVLATALFGQPPFKNVIVNGLVLASDGQKMSKRKKNYPDPVSIIQKYGADALRLYLINSPVVRAENLRFKEEGVRDVLKDVLLPWYNAYRFLIQNVLRLQKEEEIEFLYNENTVRESPNITDRWILSFMQSLIGFFETEMAAYRLYTVVPRLVKFVDILTNWYVRMNRRRLKGENGMEDCVMALETLFSVLLSLCRLMAPYTPFLTELMYQNLKVLIDPVSVQDKDTLSIHYLMLPRVREELIDKKTESAVSQMQSVIELGRVIRDRKTIPIKYPLKEIVVIHQDPEALKDIKSLEKYIIEELNVRKVTLSTDKNKYGIRLRAEPDHMVLGKRLKGAFKAVMTSIKQLSSEELEQFQKTGTIVVEGHELHDEDIRLMYTFDQATGGTAQFEAHSDAQALVLLDVTPDQSMVDEGMAREVINRIQKLRKKCNLVPTDEITVYYKAKSEGTYLNSVIESHTEFIFTTIKAPLKPYPVSPSDKVLIQEKTQLKGSELEITLTRGSSLPGPACAYVNLNICANGSEQGGVLLLENPKGDNRLDLLKLKSVVTSIFGVKNTELAVFHDETEIQNQTDLLSLSGKTLCVTAGSAPSLINSSSTLLCQYINLQLLNAKPQECLMGTVGTLLLENPLGQNGLTHQGLLYEAAKVFGLRSRKLKLFLNETQTQEITEDIPVKTLNMKTVYVSVLPTTADF",-0.336,-0.1582
"LAMB3 (protein, UniProt Q13751 18-1172, looked up) Laminin subunit beta-3: QQACSRGACYPPVGDLLVGRTRFLRASSTCGLTKPETYCTQYGEWQMKCCKCDSRQPHNYYSHRVENVASSSGPMRWWQSQNDVNPVSLQLDLDRRFQLQEVMMEFQGPMPAGMLIERSSDFGKTWRVYQYLAADCTSTFPRVRQGRPQSWQDVRCQSLPQRPNARLNGGKVQLNLMDLVSGIPATQSQKIQEVGEITNLRVNFTRLAPVPQRGYHPPSAYYAVSQLRLQGSCFCHGHADRCAPKPGASAGPSTAVQVHDVCVCQHNTAGPNCERCAPFYNNRPWRPAEGQDAHECQRCDCNGHSETCHFDPAVFAASQGAYGGVCDNCRDHTEGKNCERCQLHYFRNRRPGASIQETCISCECDPDGAVPGAPCDPVTGQCVCKEHVQGERCDLCKPGFTGLTYANPQGCHRCDCNILGSRRDMPCDEESGRCLCLPNVVGPKCDQCAPYHWKLASGQGCEPCACDPHNSLSPQCNQFTGQCPCREGFGGLMCSAAAIRQCPDRTYGDVATGCRACDCDFRGTEGPGCDKASGRCLCRPGLTGPRCDQCQRGYCNRYPVCVACHPCFQTYDADLREQALRFGRLRNATASLWSGPGLEDRGLASRILDAKSKIEQIRAVLSSPAVTEQEVAQVASAILSLRRTLQGLQLDLPLEEETLSLPRDLESLDRSFNGLLTMYQRKREQFEKISSADPSGAFRMLSTAYEQSAQAAQQVSDSSRLLDQLRDSRREAERLVRQAGGGGGTGSPKLVALRLEMSSLPDLTPTFNKLCGNSRQMACTPISCPGELCPQDNGTACGSRCRGVLPRAGGAFLMAGQVAEQLRGFNAQLQRTRQMIRAAEESASQIQSSAQRLETQVSASRSQMEEDVRRTRLLIQQVRDFLTDPDTDAATIQEVSEAVLALWLPTDSATVLQKMNEIQAIAARLPNVDLVLSQTKQDIARARRLQAEAEEARSRAHAVEGQVEDVVGNLRQGTVALQEAQDTMQGTSRSLRLIQDRVAEVQQVLRPAEKLVTSMTKQLGDFWTRMEELRHQARQQGAEAVQAQQLAEGASEQALSAQEGFERIKQKYAELKDRLGQSSMLGEQGARIQSVKTEAEELFGETMEMMDRMKDMELELLRGSQAIMLRSADLTGLEKRVEQIRDHINGRVLYYATCK",-0.3598,0.9719

# Further lines, with some results ahead:
"Difference (log2), PP1 vs untreated [1] [log2]",Molecule,"Difference (log2), untreated vs GFP (GFP-14-3-3β) [log2]"
-0.3668,"SFPQ (protein, UniProt P23246 1-707, looked up) Splicing factor, proline- and …: MSRDRFRSRGGGGGGFHRRGGGGGRGGLHDFRSPPPGMGLNQNRGPMGPGPGQSGPKPPIPPPPPHQQQQQPPPQQPPPQQPPPHQPPPHPQPHQQQQPPPPPQDSSKPVVAQGPGPAPGVGSAPPASSSAPPATPPTSGAPPGSGPGPTPTPPPAVTSAPPGAPPPTPPSSGVPTTPPQAGGPPPPPAAVPGPGPGPKQGPGPGGPKGGKMPGGPKPGGGPGLSTPGGHPKPPHRGGGEPRGGRQHHPPYHQQHHQGPPPGGPGGRSEEKISDSEGFKANLSLLRRPGEKTYTQRCRLFVGNLPADITEDEFKRLFAKYGEPGEVFINKGKGFGFIKLESRALAEIAKAELDDTPMRGRQLRVRFATHAAALSVRNLSPYVSNELLEEAFSQFGPIERAVVIVDDRGRSTGKGIVEFASKPAARKAFERCSEGVFLLTTTPRPVIVEPLEQLDDEDGLPEKLAQKNPMYQKERETPPRFAQHGTFEYEYSQRWKSLDEMEKQQREQVEKNMKDAKDKLESEMEDAYHEHQANLLRQDLMRRQEELRRMEELHNQEMQKRKEMQLRQEEERRRREEEMMIRQREMEEQMRRQREESYSRMGYMDPRERDMRMGGGGAMNMGDPYGSGGQKFPPLGGGGGIGYEANPGVPPATMSGSMMGSDMRTERFGQGGAGPVGGQGPRGMGPGTPAGYGRGREEYEGPNKKPRF",0.3721
-0.3533,"RRP15 (protein, UniProt Q9Y3B9 2-282, looked up) RRP15-like protein: AAAAPDSRVSEEENLKKTPKKKMKMVTGAVASVLEDEATDTSDSEGSCGSEKDHFYSDDDAIEADSEGDAEPCDKENENDGESSVGTNMGWADAMAKVLNKKTPESKPTILVKNKKLEKEKEKLKQERLEKIKQRDKRLEWEMMCRVKPDVVQDKETERNLQRIATRGVVQLFNAVQKHQKNVDEKVKEAGSSMRKRAKLISTVSKKDFISVLRGMDGSTNETASSRKKPKAKQTEVKSEEGPGWTILRDDFMMGASMKDWDKESDGPDDSRPESASDSDT",0.6496
